Laboratory results reported in patent publication US20230106131A1.

Key:
[1] = target: GST-MDM2 (human MDM2 residues 17-125) (human) (UniProt Q00987); experiment: ratio of KD values of FITC-labeled peptides
[2] = target: GST-MDM2 (human MDM2 residues 17-125) (human) (UniProt Q00987); experiment: direct binding of the FITC-labeled peptide to MDM2

Chain of GST-MDM2 (human MDM2 residues 17-125) (human) (Q00987 17-125): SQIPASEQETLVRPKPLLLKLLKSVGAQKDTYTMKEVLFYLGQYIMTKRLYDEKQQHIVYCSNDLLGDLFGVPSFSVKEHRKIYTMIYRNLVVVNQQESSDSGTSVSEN

fold decrease of affinity against peptide 8 [1]: 8 fold
Kd [2]: 114 nM
Substance: peptide 9, Ac-LTFhCHYWhCQLTS-miniPEG-K(FITC)-NH2, stapled with BBA-CPP9
